Experimental data as given in patent US20150160214A1, “Quantitation of Cellular Adhesion Dynamics Across Immobilized Receptors Under Rheological Shear Flow” (Mayo Foundation for Medical Education and Research, priority 2013, published 2015).

Assays:
[1] = Urea-induced unfolding monitored by CD at 222 nm (Example 1); format: physicochemical; details: 25° Celsius, native to intermediate transition
Description: A1-1261 and A1-1238 were chemically unfolded with urea in order to compare the obtained thermodynamic parameters. The unfolding was monitored at 25° Celsius by CD at λ=222 nm, FIG. 3B. For both proteins, unfolding through an intermediate state was observed, as has been previously reported (Auton:2009). The thermodynamic parameters are illustrated in the insets of FIG. 3B and listed in the Supplement Table 2. Relative to A1-1261, A1-1238 has a marginal loss in unfolding cooperativity (+0.55±0.38 kJ/mol/M) of the transition and the midpoint, cm, of A1-1238 is increased by +0.27±0.04 M. These two contributions to the ΔG^0 cancel each other so that the N-terminal peptide is neither stabilizing nor destabilizing the conformational transition.
Isothermal urea induced unfolding of A1-1261 and A1-1238 at 25° Celsius was monitored via CD at λ=222 nm using a quartz cuvette with a path length of 1 mm and a protein concentration of 10 μM after an overnight equilibration. CD-signal was averaged for 10 min, corrected for the corresponding CD-signal of the buffer and converted into mean molar ellipticities per amino acid residue (θMRW).
Isothermal urea unfolding was analyzed using a three state reversible model (N<->I<->D) as previously described (Auton:2009, Auton:2007). All thermal unfolding transitions were analyzed according to the irreversible models provided in the Supporting Information. […]

[2] = determined previously (Auton:2009); cited from earlier work
platelet GPIbα = target: T1, platelet GPIbα (Homo sapiens, UniProt P07359); experiment: Platelet adhesion to surface captured disulfide-intact A1 and RCAM A1 under shear flow (Example 2); format: cell-based
T1 construct: endogenous in cells; host or cells: platelets in citrated whole blood of normal healthy volunteer donors
Description: The interaction of disulfide-intact A1 and of RCAM A1 with platelets was studied by immobilizing the proteins via the 6×His-Tag on Cellix biochips in which the internal channel surface was coated with a Cu2+ chelating chemistry. A 5 μM concentration of protein was immobilized in the biochip and citrated whole blood was perfused at a shear rate of 800 s−1 (FIG. 11B). This perfusion was followed by TBS buffer and after red blood cells cleared the channel, the shear was decremented to 100 s−1 or incremented to 9000 s−1 every two minutes at logarithmic intervals. Surface bound platelets were allowed to equilibrate at a given shear rate for 50 s and a 60 s video at 24 frames per second was recorded and analyzed as described in the methods. The internal channel surface lacking immobilized A1 domain was completely inert to platelets.
At each shear rate, platelet mean pause times and mean translocation velocities were calculated from the X-Y trajectories of moving platelets as described in the methods. Approximately 1000 platelet trajectories were analyzed at each shear rate (FIGS. 11B to 11D). The mean pause times were also calculated from the pause time survival fraction obtained from the cumulative integral of the pause time distribution (FIG. 11B) (Thomas:2006). The survival fraction exponentially decreases with faster decay rates as shear increases. Fitting the survival fraction with a bi-exponential decay function results in the apparent rate constants and amplitudes as a function of shear rate (FIG. 11C).
The determination and analysis of platelet pause times and instantaneous translocation velocities over surface captured A1 and RCAM A1 was performed as previously described (Tischer:2013). Here, the inventor used the Cellix Mims Evo syringe pump controlled by VenaFluxAssay (www.cellixltd.com). Vena8™ CGS biochips were custom designed with 800 μm width by 80 μm height microchannels bonded to glass slides with a Cu^2+ chelated PEG surface serviced by Microsurfaces Inc. (www.proteinslides.com/histag.html) to which the A1 and RCAM A1 in TBS were captured by the 6×His-Tag at a total concentration of 5 μM. Citrated whole blood was obtained from the informed consent of healthy volunteer donors with approval from the Mayo Clinic Institutional Review Board and 100 μL was perfused over the surface captured A1 domains at […]. The shear was increased or decreased in a stepwise manner to measure the dynamics of platelet adhesion at high and low shear. After allowing the flow chamber to equilibrate for 50 s at each shear rate, 1 min movies were recorded at 24 frames per second in phase contrast at 200× magnification with 2×2 pixel binning on a Zeiss AxioCam Mrm camera (6.45 μm/px) attached to a Zeiss Axio Observer.D1 inverted microscope. Tracking analysis was performed using MediaCybernetics ImagePro® Premier (www.mediacy.com/index.aspx?page=IP\_Premier) The distance travelled in the direction of flow was calculated from the coordinate data for each platelet as a function of time using √{square root over ((xt−x0)^2)}, where x0 is the coordinates of a platelet on the first frame of the movie and xt is the coordinate on subsequent frames of the movie. These trajectories were differentiated into instantaneous velocities using a Savitzky-Golay algorithm (Savitzky:1964) with a five data point window size and a second order polynomial implemented into a Mathematica (www.wolfram.com/mathematica) notebook written in our lab. Trajectories were retained for statistical analysis if the platelet was present for ≧1 s and travelled a total distance greater than 1 Distance travelled in pixels (px) was converted to (μm) using 6.45 μm/px*2/200=0.0645 μm/px. Pause times were determined by the amount of time (sec) a platelets velocity was 0±4 px/s≅0±0.23 μm/s, within the noise. Data are reported as mean velocities and pause times attained by individual platelets averaged over all platelets analyzed. […]

Substance: A1-1238: Recombinant human vWF A1 domain, amino acids Q1238-P1471, with N-terminal 6×His-Tag, disulfide intact
- Change in midpoint cm relative to A1-1261 [1]: +0.27±0.04 M
- Change in unfolding cooperativity (m-value) relative to A1-1261 [1]: +0.55±0.38 kJ/mol/M
- Tm from reversible N<->I urea-temperature phase diagram [2]: 51.1±0.5 ° Celsius
- Shear rate at which platelets detach from the surface immobilized domain (platelet GPIbα; listed as A1): less than 300 s−1
- Shear rate at which platelets detach from the surface immobilized domain (platelet GPIbα; listed as disulfide-intact A1): ≤ 300 s⁻¹
- Mean platelet pause time (platelet GPIbα; shear rate 530 s−1): ~0.75 s
- Mean platelet pause time (platelet GPIbα; shear rate 1025 s−1): ~0.9 s
